The values that follow come from FireProtDB (doi:10.1016/0022-2836(92)90560-7).

The conditions of the data set: Bacillus amyloliquefaciens, 25 °C, Urea, Fluorescence, MES/Tris 150 mM/150 mM/, NaCl 1 M, whole UniProt chain shown.

B1: Ribonuclease wild type, P00648 (protein)
chain: MMKMEGIALKKRLSWISVCLLVLVSAAGMLFSTAAKTETSSHKAHTEAQVINTFDGVADYLQTYHKLPDNYITKSEAQALGWVASKGNLADVAPGKSIGGDIFSNREGKLPGKSGRTWREADINYTSGFRNSDRILYSSDWLIYKTTDHYQTFTKIR
Take B1: under “pH 5.8”, the denaturant m value was 1.95 kcal/mol/M, the “denaturant midpoint (higher = more stable)” value worked out at 5.62 M and the unfolding free energy was found to be 11 kcal/mol. Moreover, for the setting “pH 9”, the denaturant m value was 2.11 kcal/mol/M, the “denaturant midpoint (higher = more stable)” value was determined as 4.8 M and the unfolding free energy turned out to be 9.41 kcal/mol.
